Consider six molecules from patent US11278600B2, “Human alpha-galactosidase variants” (Codexis, Inc., priority 2014, dated 2022).

Format in all cases: biochemical
The nature of data set [1]: HTP-analysis of supernatants pretreated with base (MUGal hydrolysis). The note with it: challenge at pH 7.6; activity of the variant/activity of Rd2BB (SEQ ID NO: 10); yeast supernatant. Summed up:
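GLA variants were secreted by transformed INVSc1 yeast grown 66-84 h at 30° C. Supernatants were exposed to neutral-to-basic buffers (pH 7.0-9.7) at 37° C for 1-18 h, then assayed with MUGal in acidic citrate/McIlvaine buffer, with fluorescence read after quenching.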

The nature of data set [2]: HTP-analysis of supernatants pretreated with acid (MUGal hydrolysis). The note with it: challenge at pH 4.2; activity of the variant/activity of Rd2BB (SEQ ID NO: 10); yeast supernatant. Summed up:
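MUGal hydrolysis was tracked by fluorescence (Ex 355 nm, Em 448 nm) after a 30-180 min reaction at 37° C. in pH 4.8 McIlvaine/citrate buffer, stopped with 1 M sodium carbonate. Beforehand, yeast (INVSc1) culture supernatants carrying GLA variants were held 1-3 h at 37° C. in acidic McIlvaine buffer, pH 3.3-4.3.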

Data set [3] in a line: HTP-analysis of yeast culture supernatants, no challenge (MUGal hydrolysis). The note with it: activity of the variant/activity of Rd2BB (SEQ ID NO: 10), yeast supernatant. Summed up:
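GLA variants expressed in yeast INVSc1, secreted into SD-Ura broth over 66-84 h at 30° C; clarified supernatants tested without challenge. Supernatant mixed with McIlvaine buffer pH 4.8 and 2 mM MUGal (citrate/KCl, pH 4.6), 37° C for 30-180 min, carbonate-quenched, fluorescence Ex 355/Em 448 nm.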

B1: 213 (protein)
chain: LDNGLARTPTMGWLQWERFMCNLDCQEEPDSCISEKLFMEMAELMVSEGWKDAGYEYLCIDDCWMAPQRDSEGRLQADPQRFPHGIRQLANYVHSKGLKLGIYADVGNKTCAGFPGSFGYYDIDAQTFADWGVDLLKFDGCYCDSLENLADGYKHMSLALNRTGRSIVYSCEWPLYMWPFQKPNYTEIRQYCNHWRNFADIDDSWASIKSILDWTSFNQERIVDVAGPGGWNDPDMLVIGNFGLSWNQQVTQMALWAIMAAPLFMSNDLRHISPQAKALLQDKDVIAINQDPLGKQGYQLRQGDNFEVWERPLSGLAWAVAMINRQEIGGPRSYTIAVASLGKGVACNPACFITQLLPVKRKLGFYEWTSRLRSHINPTGTVLLQLENTMQMSKDLLL
modifications: Synthetic Polypeptide sequence of Variant No. 213 of mature Human GLA
Regarding B1, the “Relative Activity of GLA Variants After Challenge at pH 7.6” value (“Relative Activity … at pH 7.6” for short) in data set [1] is reported as “− (− = <0.5 relative activity over Rd2BB (SEQ ID NO: 10))”. For the same molecule, in data set [2], the “Relative Activity of GLA Variants After Challenge at pH 4.2” value (“Relative Activity … at pH 4.2” for short) was “− (− = <0.5 relative activity over Rd2BB (SEQ ID NO: 10))”. Besides, the “Relative Activity of GLA Variants After No Challenge (NC)” value in data set [3] is listed as “+ (+ = 0.5 to 1.5 relative activity over Rd2BB (SEQ ID NO: 10))”.

B2: 218 (protein)
chain: LDNGLARTPTMGWLHWERFMCNLDCQEEPDSCISEKLFMEMAELMVSEGWKDAGYEYLCIDDCWMAPQRDSEGRLQADPQRFPHGIRQLANYVHSKGLKLGIYADVGNKTCAGFPGSFGYYDIDAQTFADWGVDLLKFDGCYCDSLENLADGYKHMSLALNRTGRSIVYSCEWPLYMWPFQKPNYTEIRQYCNHWRNFADIDDSWASIKSILDWTSFNQERIVDVAGPGGWNDPDMLVIGNFGLSWNQQVTQMALWAIMAAPLFMSNDLRHISPQAKALLQDKDVIAINQDPLGKQGYQLRQGDNFEVWERPLSGLAWAVAIINRQEIGGPRSYTIAVASLGKGVACNPACFITQLLPVKRKLGFYNWTSRLKSHINPTGTVLLQLENTMQMSLKDLL
modifications: Synthetic Polypeptide sequence of Variant No. 218
As for B2, in data set [1], the “Relative Activity … at pH 7.6” value is listed as “+++ (+++ = >2.5 relative activity over Rd2BB (SEQ ID NO: 10))”. Besides, in data set [2], the “Relative Activity … at pH 4.2” value is given as “+++ (+++ = >2.5 relative activity over Rd2BB (SEQ ID NO: 10))”. In addition, the “Relative Activity of GLA Variants After No Challenge (NC)” value in data set [3] is recorded as “+++ (+++ = >2.5 relative activity over Rd2BB (SEQ ID NO: 10))”.

B3: 214 (protein)
chain: LDNGLARTPTMGWLHWERFMCNLDCQEEPDSCISEKLFMEMAELMVSEGWKDAGYEYLCIDDCWMAPQRDSEGRLQADPQRFPHGIRQLANYVHSKGLKLGIYADVGNKTCAGFPGSFGYYDIDAQTFADWGVDLLKFDGCYCDSLENLADGYKHMSLALNRTGRSIVYSCEWPLYMWPFQKPNYTEIRQYCNHWRNFADIDDSWASIKSILDWTSFNQERIVDVAGPGGWNDPDMLVIGNFGLSWNQQVTQMALWAIMAAPLFMSNDLRHISPQAKALLQDKDVIAINQDPLGKQGYQLRQGDNFEVWERPLSGLAWAVAMINRQEIGGPRSYTIAVASLGDGVACNPACFITQLLPVKRKLGLYNWTSRLRSHINPTGTVLLQLENTMQMSKDLLL
modifications: Synthetic Polypeptide sequence of Variant No. 214 of mature Human GLA
Consider B3, for which the “Relative Activity … at pH 7.6” value in data set [1] was “+++ (+++ = >2.5 relative activity over Rd2BB (SEQ ID NO: 10))”. In data set [2], the “Relative Activity … at pH 4.2” value was “+++ (+++ = >2.5 relative activity over Rd2BB (SEQ ID NO: 10))”. Further, the “Relative Activity of GLA Variants After No Challenge (NC)” value in data set [3] is on record as “+++ (+++ = >2.5 relative activity over Rd2BB (SEQ ID NO: 10))”.

B4: 216 (protein)
chain: LDNGLARTPTMGWLHWERFMCNLDCQEEPDSCISEKLFMEMAELMVSEGWKDAGYEYLCIDDCWMAPQRDSEGRLQADPQRFPHGIRQLANYVHSKGLKLGIYADVGNKTCAGFPGSFGYYDIDAQTFADWGVDLLKFDGCYCDSLENLADGYKHMSLALNRTGRSIVYSCEWPLYMWPFQKPNYTEIRQYCNHWRNFADIDDSWASIKSILDWTSFNQERIVDVAGPGGWNDPDMLVIGNFGLSWNQQVTQMALWAIMAAPLFMSNDLRHISPQAKALLQDKDVIAINQDPLGKQGYQLRQGDNFEVWERPLSGLAWAVAMINRQEIGGPRSYTIAVASLGGGVACNPACFITQLLPVKRKLGLYNWTSRLKSHINPTGTVLLQLENTMQMSKDLLL
modifications: Synthetic Polypeptide sequence of Variant No. 216 of mature Human GLA
On to B4, for which the “Relative Activity … at pH 7.6” value in data set [1] is reported as “+++ (+++ = >2.5 relative activity over Rd2BB (SEQ ID NO: 10))”. For the same molecule, in data set [2], the “Relative Activity … at pH 4.2” value is “+++ (+++ = >2.5 relative activity over Rd2BB (SEQ ID NO: 10))”. For the same molecule, the “Relative Activity of GLA Variants After No Challenge (NC)” value in data set [3] was “++ (++ = 1.5 to 2.5 relative activity over Rd2BB (SEQ ID NO: 10))”.

B5: 219 (protein)
chain: LDNGLARTPTMGWLHWERFMCNLDCQEEPDSCISEKLFMEMAELMVSEGWKDAGYEYLCIDDCWMAPQRDSEGRLQADPQRFPHGIRQLANYVHSKGLKLGIYADVGNKTCAGFPGSFGYYDIDAQTFADWGVDLLKFDGCYCDSLENLADGYKHMSLALNRTGRSIVYSCEWPLYMWPFQKPNYTEIRQYCNHWRNFADIDDSWASIKSILDWTSFNQERIVDVAGPGGWNDPDMLVIGNFGLSWNQQVTQMALWAIMAAPLFMSNDLRHISPQAKALLQDKDVIAINQDPLGKQGYQLRQGDNFEVWERPLSGLAWAVAIINRQEIGGPRSYTIAVASLGKGVACNPACFITQLLPVKRKLGFYEWTSRLKSHINPTGTVLLQLENTMQMSKDLLL
modifications: Synthetic Polypeptide sequence of Variant No. 219 of mature Human GLA
In the case of B5, the “Relative Activity … at pH 7.6” value in data set [1] is “+ (+ = 0.5 to 1.5 relative activity over Rd2BB (SEQ ID NO: 10))”. Further, the “Relative Activity … at pH 4.2” value in data set [2] is “+ (+ = 0.5 to 1.5 relative activity over Rd2BB (SEQ ID NO: 10))”. The “Relative Activity of GLA Variants After No Challenge (NC)” value in data set [3] is “+ (+ = 0.5 to 1.5 relative activity over Rd2BB (SEQ ID NO: 10))”.

B6: 215 (protein)
chain: LDNGLARTPTMGWLHWERFMCNLDCQEEPDSCISEKLFMEMAELMVSEGWKDAGYEYLCIDDCWMAPQRDSEGRLQADPQRFPHGIRQLANYVHSKGLKLGIYADVGNKTCAGFPGSFGYYDIDAQTFADWGVDLLKFDGCYCDSLENLADGYKHMSLALNRTGRSIVYSCEWPLYMWPFQKPNYTEIRQYCNHWRNFADIDDSWASIKSILDWTSFNQERIVDVAGPGGWNDPDMLVIGNFGLSWNQQVTQMALWAIMAAPLFMSNDLRHISPQAKALLQDKDVIAINQDPLGKQGYQLRQGDNFEVWERPLSGLAWAVAMINRQEIGGPRSYTIAVASLGGGVACNPACFITQLLPVKRKLGFYEWTSRLRSHINPTGTVLLQLENTMQMSKDLLL
modifications: Synthetic Polypeptide sequence of Variant No. 215 of mature Human GLA
Consider B6, for which, in data set [1], the “Relative Activity … at pH 7.6” value was “+ (+ = 0.5 to 1.5 relative activity over Rd2BB (SEQ ID NO: 10))”. Besides, the “Relative Activity … at pH 4.2” value in data set [2] was “+ (+ = 0.5 to 1.5 relative activity over Rd2BB (SEQ ID NO: 10))”. The “Relative Activity of GLA Variants After No Challenge (NC)” value in data set [3] was “+ (+ = 0.5 to 1.5 relative activity over Rd2BB (SEQ ID NO: 10))”.
